EP4703388A1 (Jiangsu Hengrui Pharmaceuticals Co., Ltd., dated 2024)

Legend:
[1] = target: T1, human tissue factor (TF) on MDA-MB-231, NCI-H358 and HCT116 cells (human, UniProt P13726 33-295); experiment: flow cytometry on MDA-MB-231 cells
T1 construct: whole, on cells; also called TF antigen; CD142

[2] = target: T2, human TF ECD-His (hTF-his) (human, UniProt P13726 33-251); experiment: SPR Biacore T200, antibody on Protein A chip, TF-His as analyte, 1:1 model
T2 construct: also called bio-hTF-his; human TF-His protein

[3] = target: T3, cyno TF ECD-His (cTF-his) (monkey (cyno)); experiment: as above
T3 construct: also called bio-cTF-his; monkey TF-His protein
T3 chain: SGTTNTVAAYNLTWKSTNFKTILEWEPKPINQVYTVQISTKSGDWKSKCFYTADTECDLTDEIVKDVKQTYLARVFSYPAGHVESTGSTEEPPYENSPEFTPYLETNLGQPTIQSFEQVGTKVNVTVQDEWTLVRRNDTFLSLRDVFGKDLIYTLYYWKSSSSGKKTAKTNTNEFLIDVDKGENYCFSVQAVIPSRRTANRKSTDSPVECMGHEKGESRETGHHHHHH

[4] = target: T1, human tissue factor (TF) on MDA-MB-231, …; experiment: flow cytometry on H358 cells

Row | Binder | EC50 [1] [nM] | other results
1 | hu67-11 (antibody, human IgG1, kappa, V domains shown) VH: EVQLQESGPGLVKPSQTLSLTCTVSGFSLTNYGVNWIRQPPGKGLEWIGVIWSRGNTDYNAAFISRVTISKDTSKNQVSLKLSSVTAADTAVYYCARKDAVVATDALDYWGQGTTVTVSS VL: DIQMTQSPSSLSASVGDRVTITCKASQDVSTAVAWYQQKPGKAPKLLIYSTSYRYTGVPSRFSGSGSGTDFTFTISSLQPEDIATYYCQQHYSTPYTFGGGTKVEIKR | 26.3 | Kd [2]: 16.5 nM; koff [2]: 0.000675 s⁻¹; kon [2]: 40900 M⁻¹ s⁻¹; Kd [3]: 8.95 nM; koff [3]: 0.000243 s⁻¹; kon [3]: 27100 M⁻¹ s⁻¹
2 | hu10H10-33 (antibody, V domains shown, H7+L3; Full-length IgG) VH: EVQLVQSGSELKKPGASVKVSCKASGYTFITYWIEWVKQRPGQGLEWMGDILPGSGSTNYNENFKGRATFSADTSVSTAYLQISSLKAEDTAVYYCARSGYYGNSGFAYWGQGTLVTVSS VL: DIQMTQSPSSLSASVGDRVTITCKSSQSLLSSGNQKNYLTWYQQKPGKAPKLLIYWASTREEGVPSRFSGSGSGTDFTLTISSLQPEDFATYYCQNDYTYPLTFGQGTKLEIK | 1.09 | EC50 [4]: 0.96 nM
3 | hu10H10-1 (antibody, V domains shown, H1+L1; Full-length IgG) VH: EVQLVQSGAEVKKPGASVKVSCKASGYTFITYWIEWVRQRPGQGLEWMGDILPGSGSTNYNENFKGRVTFTADTSTSTVYMQLSSLRSEDTAVYYCARSGYYGNSGFAYWGQGTLVTVSS VL: DIQMTQSPSSLSASVGDRVTITCKSSQSLLSSGNQKNYLTWYQQKPGKAPKLLIYWASTRESGVPSRFSGSGSGTDFTLTISSLQPEDFATYYCQNDYTYPLTFGQGTKLEIK | 2.05 | 
4 | hu10H10-34 (antibody, V domains shown, H8+L3; Full-length IgG) VH: EVQLVQSGSELKKPGASVKVSCKASGRTFITYWIEWVRQRPGQGLEWMGDILPGSGSTNYNENFKGRATFSADTSVSTAYLQISSLKAEDTAVYYCARSGYYGNSGFAYWGQGTLVTVSS VL: DIQMTQSPSSLSASVGDRVTITCKSSQSLLSSGNQKNYLTWYQQKPGKAPKLLIYWASTREEGVPSRFSGSGSGTDFTLTISSLQPEDFATYYCQNDYTYPLTFGQGTKLEIK | 1.12 | EC50 [4]: 0.99 nM
5 | hu10H10-35 (antibody, V domains shown, H9+L3; Full-length IgG) VH: EVQLVQSGSELKKPGASVKVSCKASGYTFRTYWIEWVKQRPGQGLEWMGDILPGSGSTNYNENFKGRATFSADTSVSTAYLQISSLKAEDTAVYYCARSGYYGNSGFAYWGQGTLVTVSS VL: DIQMTQSPSSLSASVGDRVTITCKSSQSLLSSGNQKNYLTWYQQKPGKAPKLLIYWASTREEGVPSRFSGSGSGTDFTLTISSLQPEDFATYYCQNDYTYPLTFGQGTKLEIK | 1.09 | EC50 [4]: 0.79 nM
6 | hu10H10-36 (antibody, V domains shown, H10+L3; Full-length IgG) VH: EVQLVQSGSELKKPGASVKVSCKASGYTFIEYWIEWVKQRPGQGLEWMGDILPGSGSTNYNENFKGRATFSADTSVSTAYLQISSLKAEDTAVYYCARSGYYGNSGFAYWGQGTLVTVSS VL: DIQMTQSPSSLSASVGDRVTITCKSSQSLLSSGNQKNYLTWYQQKPGKAPKLLIYWASTREEGVPSRFSGSGSGTDFTLTISSLQPEDFATYYCQNDYTYPLTFGQGTKLEIK | 2.14 | EC50 [4]: 0.96 nM
7 | hu10H10-19 (antibody, V domains shown, H1+L4; Full-length IgG) VH: EVQLVQSGAEVKKPGASVKVSCKASGYTFITYWIEWVRQRPGQGLEWMGDILPGSGSTNYNENFKGRVTFTADTSTSTVYMQLSSLRSEDTAVYYCARSGYYGNSGFAYWGQGTLVTVSS VL: DIQMTQSPSSLSASVGDRVTITCKSSQSLLSSGNQKNYLTWYQQKPGKAPKLLIYWASTRESGVPSRFSGSGSGTDFTLTISSLQPEDFATYYCQNDYTYPLSFGQGTKLEIK | 2.35 | 
8 | chimeric antibody CH310 (antibody, human IgG1, kappa, V domains shown, Murine 310# variable regions + human constant regions) VH: EVQLQQSGPELVKPGASLKISCKASGYSFTGYYMNWVKQSPEKSLEWIGEINPSTGGSTYNQKFKAKATLTVDQSSNTAYMQLKSLTSEDSAVYYCARRELGGPFGYWGQGTPVTVSA VL: SIVMTQTPKFLLVSSGDRVTITCKASQSVSNGIAWYQQKPGQSPKLLIYFASNRYTGVPDRFTGSGYGTDFTFTISTVQAEDLAVYFCQQDYSSPWTFGGGTKLEIKR | 1.84 | Kd [2]: 23.2 nM; koff [2]: 0.00949 s⁻¹; kon [2]: 409000 M⁻¹ s⁻¹; Kd [3]: 23.5 nM; koff [3]: 0.00767 s⁻¹; kon [3]: 327000 M⁻¹ s⁻¹
9 | hu310-5 (antibody, human IgG1, kappa, V domains shown) VH: EVQLVQSGAEVKKPGASVKVSCKASGYSFTGYYMNWVRQAPGQGLEWMGEINPSTGGSTYNQKFKARVTMTVDQSTSTVYMELSSLRSEDTAVYYCARRELGGPFGYWGQGTTVTVSS VL: SIQMTQSPSSLSASVGDRVTITCKASQSVSNGIAWYQQKPGKSPKLLIYFASNRYTGVPSRFSGSGYGTDFTFTISSLQPEDIATYYCQQDYSSPWTFGGGTKVEIKR | 1.55 | 
10 | hu310-4 (antibody, human IgG1, kappa, V domains shown) VH: EVQLVQSGAEVKKPGASVKVSCKASGYSFTGYYMNWVRQAPGQGLEWMGEINPSTGGSTYNQKFKARVTMTVDQSTSTVYMELSSLRSEDTAVYYCARRELGGPFGYWGQGTTVTVSS VL: DIQMTQSPSSLSASVGDRVTITCKASQSVSNGIAWYQQKPGKAPKLLIYFASNRYTGVPSRFSGSGSGTDFTFTISSLQPEDIATYYCQQDYSSPWTFGGGTKVEIKR | 2.11 | 
11 | hu310-6 (antibody, human IgG1, kappa, V domains shown) VH: EVQLVQSGAEVKKPGASVKVSCKASGYSFTGYYMNWVRQAPGQGLEWMGEINPSTGGSTYNQKFKARVTMTVDQSTSTVYMELSSLRSEDTAVYYCARRELGGPFGYWGQGTTVTVSS VL: SIQMTQSPSSLSASVGDRVTITCKASQSVSQGIAWYQQKPGKSPKLLIYFASNRYTGVPSRFSGSGYGTDFTFTISSLQPEDIATYYCQQDYSSPWTFGGGTKVEIKR | 2.56 | 
12 | hu310-7 (antibody, human IgG1, kappa, V domains shown) VH: EVQLVQSGAEVKKPGASVKVSCKASGYSFTGYYMNWVRQAPGQGLEWMGEINPSTGGSTYNQKFKARVTMTVDQSTSTVYMELSSLRSEDTAVYYCARRELGGPFGYWGQGTTVTVSS VL: SIQMTQSPSSLSASVGDRVTITCKASQSVSSGIAWYQQKPGKSPKLLIYFASNRYTGVPSRFSGSGYGTDFTFTISSLQPEDIATYYCQQDYSSPWTFGGGTKVEIKR | 2.08 | 
13 | hu310-8 (antibody, human IgG1, kappa, V domains shown) VH: EVQLVQSGAEVKKPGASVKVSCKASGYSFTGYYMNWVRQAPGQGLEWMGEINPSTGGSTYNQKFKARVTMTVDQSTSTVYMELSSLRSEDTAVYYCARRELGGPFGYWGQGTTVTVSS VL: SIQMTQSPSSLSASVGDRVTITCKASQSVSTGIAWYQQKPGKSPKLLIYFASNRYTGVPSRFSGSGYGTDFTFTISSLQPEDIATYYCQQDYSSPWTFGGGTKVEIKR | 1.73 | 
14 | hu310-12 (antibody, human IgG1, kappa, V domains shown) VH: EVQLVQSGAEVKKPGASVKVSCKASGYSFTGYYMNWVRQAPGQGLEWMGEINPSTGGSTYNQKFKARVTLTVDQSTNTAYMELSSLRSEDTAVYYCARRELGGPFGYWGQGTTVTVSS VL: DIQMTQSPSSLSASVGDRVTITCKASQSVSNGIAWYQQKPGKAPKLLIYFASNRYTGVPSRFSGSGSGTDFTFTISSLQPEDIATYYCQQDYSSPWTFGGGTKVEIKR | 1.95 | 
15 | hu310-13 (antibody, human IgG1, kappa, V domains shown) VH: EVQLVQSGAEVKKPGASVKVSCKASGYSFTGYYMNWVRQAPGQGLEWMGEINPSTGGSTYNQKFKARVTLTVDQSTNTAYMELSSLRSEDTAVYYCARRELGGPFGYWGQGTTVTVSS VL: SIQMTQSPSSLSASVGDRVTITCKASQSVSNGIAWYQQKPGKSPKLLIYFASNRYTGVPSRFSGSGYGTDFTFTISSLQPEDIATYYCQQDYSSPWTFGGGTKVEIKR | 1.39 | 
16 | hu310-14 (antibody, human IgG1, kappa, V domains shown) VH: EVQLVQSGAEVKKPGASVKVSCKASGYSFTGYYMNWVRQAPGQGLEWMGEINPSTGGSTYNQKFKARVTLTVDQSTNTAYMELSSLRSEDTAVYYCARRELGGPFGYWGQGTTVTVSS VL: SIQMTQSPSSLSASVGDRVTITCKASQSVSQGIAWYQQKPGKSPKLLIYFASNRYTGVPSRFSGSGYGTDFTFTISSLQPEDIATYYCQQDYSSPWTFGGGTKVEIKR | 1.76 | 
17 | hu310-15 (antibody, human IgG1, kappa, V domains shown) VH: EVQLVQSGAEVKKPGASVKVSCKASGYSFTGYYMNWVRQAPGQGLEWMGEINPSTGGSTYNQKFKARVTLTVDQSTNTAYMELSSLRSEDTAVYYCARRELGGPFGYWGQGTTVTVSS VL: SIQMTQSPSSLSASVGDRVTITCKASQSVSSGIAWYQQKPGKSPKLLIYFASNRYTGVPSRFSGSGYGTDFTFTISSLQPEDIATYYCQQDYSSPWTFGGGTKVEIKR | 1.98 | 
18 | hu310-16 (antibody, human IgG1, kappa, V domains shown) VH: EVQLVQSGAEVKKPGASVKVSCKASGYSFTGYYMNWVRQAPGQGLEWMGEINPSTGGSTYNQKFKARVTLTVDQSTNTAYMELSSLRSEDTAVYYCARRELGGPFGYWGQGTTVTVSS VL: SIQMTQSPSSLSASVGDRVTITCKASQSVSTGIAWYQQKPGKSPKLLIYFASNRYTGVPSRFSGSGYGTDFTFTISSLQPEDIATYYCQQDYSSPWTFGGGTKVEIKR | 2.26 | 
19 | hu67Y118 (antibody, human IgG1, kappa, V domains shown) VH: EVQLQESGPGLVKPSQTLSLTCTVSGFSLTNYGVNWIRQSPGKGLEWIGVIWSRGNTDYNAAFKSRVTISKDTSKNQVSLKLSSVTAADTAVYYCARKDAIVATDALDYWGQGTTVTVSS VL: DIQMTQSPSSLSASVGDRVTITCKASQDVQTAVAWYQQKPGKAPKLLIYSTHYRYTGVPSRFSGSGSGTDFTFTISSLQPEDIATYYCLQLIGVPHTFGGGTKVEIKR | 7.05 | 
